Test results: patent US7919091B2, “Lipolysis stimulated receptor (LSR) specific antibodies” (Serono Genetics Institute S.A., priority 1997, dated 2011)

T1: LSR (Rattus norvegicus, UniProt Q9WU74)
T1 construct: from tissue; host or cells: rat liver plasma membranes / solubilized rat liver membrane proteins
T1 sequence (Q9WU74 36-593): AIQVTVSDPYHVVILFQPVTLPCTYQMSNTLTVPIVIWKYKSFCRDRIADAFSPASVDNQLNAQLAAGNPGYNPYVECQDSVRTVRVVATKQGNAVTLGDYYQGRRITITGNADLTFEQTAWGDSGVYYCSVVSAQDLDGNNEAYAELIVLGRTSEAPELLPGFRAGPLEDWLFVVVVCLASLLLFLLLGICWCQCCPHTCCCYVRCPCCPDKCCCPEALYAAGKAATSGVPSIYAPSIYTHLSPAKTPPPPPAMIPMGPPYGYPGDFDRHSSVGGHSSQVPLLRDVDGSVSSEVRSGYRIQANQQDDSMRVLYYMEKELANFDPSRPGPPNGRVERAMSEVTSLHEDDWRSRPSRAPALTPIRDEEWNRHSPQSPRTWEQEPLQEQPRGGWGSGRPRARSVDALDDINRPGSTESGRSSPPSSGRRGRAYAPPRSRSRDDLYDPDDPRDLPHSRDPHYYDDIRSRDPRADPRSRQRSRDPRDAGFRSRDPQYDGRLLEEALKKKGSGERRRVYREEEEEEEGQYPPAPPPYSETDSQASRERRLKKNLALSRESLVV
T1 sequence (Q9WU74 36-525 isoform Q9WU74-3 limits assumed): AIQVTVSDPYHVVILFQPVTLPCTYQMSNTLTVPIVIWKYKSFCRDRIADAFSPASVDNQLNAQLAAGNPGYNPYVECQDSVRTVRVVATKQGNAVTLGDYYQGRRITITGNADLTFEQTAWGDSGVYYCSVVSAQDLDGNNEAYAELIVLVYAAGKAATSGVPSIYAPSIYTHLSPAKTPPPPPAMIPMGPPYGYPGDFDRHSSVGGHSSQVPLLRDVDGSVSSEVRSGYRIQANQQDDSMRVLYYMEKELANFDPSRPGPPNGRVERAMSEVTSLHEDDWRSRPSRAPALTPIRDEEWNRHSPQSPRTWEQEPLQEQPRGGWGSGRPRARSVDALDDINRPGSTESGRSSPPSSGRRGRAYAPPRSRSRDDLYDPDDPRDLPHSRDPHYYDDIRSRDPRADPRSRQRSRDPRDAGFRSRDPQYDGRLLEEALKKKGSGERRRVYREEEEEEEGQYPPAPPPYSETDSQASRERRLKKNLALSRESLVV


Assays:
[1] = Postprandial lipemic response in mice after a high-fat meal; format: in vivo; conditions: ob/ob mice, 2.5 mg lactoferrin with 0.5 μg leptin i.v.
Experimental: Control, ob/ob and db/db mice, starved since the day before, are force-fed with a meal which is very high in fat [60% fat (37% saturated, 27% monounsaturated and 36% polyunsaturated fatty acids), 20% protein and 20% carbohydrate] providing 56 kcal of energy/kg of the weight of the animal. Immediately after the meal (time=0 hour), the mice are injected intravenously with 200 μl of physiological saline solution. At various times, 20 μl of blood are collected via the caudal vein in tubes containing 90 μg of disodium EDTA, and after separating the plasma by centrifugation, the plasma concentration of triglyceridemia is determined with the aid of an enzymatic assay kit. Each point on the curves presented corresponds to the mean with standard deviation obtained for 3 measurements per animal and for 3 different animals.
The procedure is the same as above, except that immediately after the meal (time=0 hour), the mice are injected intravenously with either 200 μl of physiological saline solution, or 200 μl of the same solution containing 50 μg of murine recombinant leptin.
ob/ob mice, starved since the day before, are force-fed with a meal identical to that described above. […] Blood is collected between 2 and 3 hours after the meal and the plasma concentration of triglycerides (TG) is measured. […]

LSR = molecular target: T1, LSR; assay: Effect of AdipoQ on LSR activity in primary culture of rat hepatocytes; format: cell-based; conditions: 25 ng/ml AdipoQ, in the presence of oleate
Experimental: Primary cultures of rat hepatocytes were prepared and distributed into 6-well plates (9000,000 cells/well). After 48 h, the cells were washed once with PBS (2 ml/well) and incubated for 30 min at 37° C. with 20 ng/ml of recombinant murine leptin. The cells were then incubated for 4 h at 37° C. with increasing concentrations of recombinant murine AdipoQ proteins and 20 μg/ml ^125I-LDL in the presence or in the absence of 0.5 mM oleate. The binding, internalization and degradation of lipoproteins were measured as indicated in Example 1.

[2] = Postprandial lipemic response in rats after AdipoQ injection; format: in vivo, rat; conditions: high-fat meal, 1 mg AdipoQ i.v.
Experimental: Male Sprague-Dawley rats (400-450 g), starved since the day before, were force-fed with a meal which was very high in fat (t=0) (60% fatty acid of which 37% saturated, 27% monounsaturated and 36% polyunsaturated, 20% protein and 20% carbohydrate, the total providing 56 kcal/kg of body weight) and received immediately afterwards an intravenous injection (femoral vein) of either 300 μl of PBS alone or of the same volume containing 1 mg of mouse recombinant AdipoQ protein. Blood samples were collected at various times (0, 2, 4 and 6 h). The quantity of plasma triglycerides was measured using an enzymatic kit. The results are presented as mean values and standard deviations on 3 animals.

[3] = Change in weight and plasma triglycerides in rats under AdipoQ infusion; format: in vivo, rat; conditions: 3-day ip infusion
Experimental: Osmotic pumps were surgically inserted into the abdominal cavities of 12 Sprague-Dawley male rats of 400-450 g. The osmotic pumps contained either 2 ml of PBS (phosphate buffered saline), pH 7.4 (control 6 rats), or 2 ml of recombinant AdipoQ protein (5 mg/ml PBS, 6 rats). These pumps were designed to deliver 10 μl/h (50 μg AdipoQ/h). The animals are weighed and individually housed in metabolic cages. 3 animals in each group are subjected ad libitum either to a normal diet or to a fatty diet (day 0). The fatty diet consists of a normal diet supplemented with 2% (w/w) cholesterol, 10% (w/w) saturated fatty acid in the form of vegetaline, [lacuna] % (w/w) sunflower oil and 15% (w/w) sucrose. On day 3, the animals are weighed and blood samples are obtained from the caudal vein. The quantity of plasma triglycerides was measured using an enzymatic kit.

[4] = Food intake in ob/ob and db/db mice under AdipoQ; format: in vivo; conditions: ob/ob and db/db obese mice, 100 μg daily for 5 days
Experimental: Recombinant AdipoQ protein (100 μg) or PBS alone were injected daily for 5 days through the caudal vein of ob/ob or db/db mice kept in a metabolic cage. The mice are weighed each day and the quantity of food consumed was also measured. The results correspond to a mean food intake and a standard deviation for 4 mice in each group.

| LSR activity (LSR) | Molecule | reduction in the lipemic response induced by leptin [1] | postprandial lipemic response [2] | level of plasma triglycerides [3] | weight ([3]; normal or fatty diet) | food intake [4] |
| --- | --- | --- | --- | --- | --- | --- |
| – | lactoferrin: human lactoferrin (Serva), blocks the activity of LSR (protein, UniProt P02788 20-710, looked up) Lactotransferrin: GRRRSVQWCAVSQPEATKCFQWQRNMRKVRGPPVSCIKRDSPIQCIQAIAENRADAVTLDGGFIYEAGLAPYKLRPVAAEVYGTERQPRTHYYAVAVVKKGGSFQLNELQGLKSCHTGLRRTAGWNVPIGTLRPFLNWTGPPEPIEAAVARFFSASCVPGADKGQFPNLCRLCAGTGENKCAFSSQEPYFSYSGAFKCLRDGAGDVAFIRESTVFEDLSDEAERDEYELLCPDNTRKPVDKFKDCHLARVPSHAVVARSVNGKEDAIWNLLRQAQEKFGKDKSPKFQLFGSPSGQKDLLFKDSAIGFSRVPPRIDSGLYLGSGYFTAIQNLRKSEEEVAARRARVVWCAVGEQELRKCNQWSGLSEGSVTCSSASTTEDCIALVLKGEADAMSLDGGYVYTAGKCGLVPVLAENYKSQQSSDPDPNCVDRPVEGYLAVAVVRRSDTSLTWNSVKGKKSCHTAVDRTAGWNIPMGLLFNQTGSCKFDEYFSQSCAPGSDPRSNLCALCIGDEQGENKCVPNSNERYYGYTGAFRCLAENAGDVAFVKDVTVLQNTDGNNNEAWAKDLKLADFALLCLDGKRKPVTEARSCHLAMAPNHAVVSRMDKVERLKQVLLHQQAKFGRNGSDCPDKFCLFQSETKNLLFNDNTECLARLHGKTTYEKYLGPQYVAGITNLKKCSTSPLLEACEFLRK | suppressed | – | – | – | – |
| increases | AdipoQ: mouse recombinant AdipoQ protein with hexahistidine peptide, expressed in E. coli; homologue of complement C1q (protein, left off: small tags and cut ends, mouse recombinant AdipoQ protein with hexahistidine peptide, expressed in E. coli; homologue of complement C1q) SHAEDDVTTTEELAPALVPPPKGTCAGWMAGIPGHPGHNGTPGRDGRDGTPGEKGEKGDAGLLGPKGETGDVGMTGAEGPRGFPGTPGRKGEPGEAAYVYRSAFSVGLETRVTVPNVPIRFTKIFYNQQNHYDGSTGKFYCNIPGLYYFSYHITVYMKDVKVSLFKKDKAVLFTYDQYQEKNVDQASGSVLLHLEVGDQVWLQVYGDGDHNGLYADNVNDSTFTGFLLYHDTN | – | massively reduce | reduced | loss in weight | reduces |
